Target: Abeta 1-40 monomer (UniProt P05067)
Assay: MPA bead capture, Abeta 1-40 read-out of the CSF sample (noise)

Substance	average RLU (40) [RLU]
KKKFKF-link (peptide)	192
KKKKKK (peptide)	197
